Measured values reported in PMC12173945, “Import mechanism of peroxisomal proteins with an N-terminal signal sequence” (Nature Cell Biology, 2025).

Experiments:
yeast PEX7 [1] = test: Bead-binding assay: PEX5 variants, PEX7 and PTS2 cargo (Extended Data Fig. 2a,c, 6b); parameters: species or system yeast (S. cerevisiae); conditions: 1 µM PEX7–GFP
Description: Cysteine-containing peptides were covalently conjugated to thiol-reactive SulfoLink coupling resin (Thermo Fisher, catalogue number 20401) according to the manufacturer’s instructions. The prepared beads were then mixed with Assay Buffer containing the fluorescently labelled protein as well as additional components indicated in the text, and the resulting bead suspensions were transferred to a 384-well glass-bottomed plate (Cellvis, P384-1.5H-N). GST-fusion proteins were instead mixed with glutathione agarose 4B (Prometheus, 20-543) in Assay Buffer containing the fluorescently labelled protein and additional components indicated in the text; the resulting bead suspensions were then transferred to a glass-bottomed plate as above. The plates were incubated at RT for the durations specified in the text and directly imaged on the spinning-disk confocal platform described earlier for peroxisomal import reactions in Xenopus egg extract. Note that imaging the beads directly in the binding reaction preserves the equilibrium and thereby allows even weak interactions to be detected. Fluorescence was collected through a Nikon ×10 0.45 NA Plan Apo air objective, and images were acquired using the Nikon NIS-Elements software and a 16-bit digitizer without binning. Imaging parameters were configured to maximize the SNR while avoiding saturation. […]

[2] = target: T1, yeast PEX7 fused at the C terminus to GFP (PEX7–GFP) (yeast (S. cerevisiae), UniProt P39108 1-375); test: bead-binding assay (fluorescence on beads by spinning-disk confocal microscopy); GST-tagged protein on glutathione beads; GFP-fused partner in solution (1 µM each in Extended Data Fig. 9a); 1 h, RT; conditions: both partners purified
T1 construct: PEX7, yeast (S. cerevisiae); not shown: GST, N-terminal, cleaved; GFP, C-terminal, kept
T1 sequence (looked up): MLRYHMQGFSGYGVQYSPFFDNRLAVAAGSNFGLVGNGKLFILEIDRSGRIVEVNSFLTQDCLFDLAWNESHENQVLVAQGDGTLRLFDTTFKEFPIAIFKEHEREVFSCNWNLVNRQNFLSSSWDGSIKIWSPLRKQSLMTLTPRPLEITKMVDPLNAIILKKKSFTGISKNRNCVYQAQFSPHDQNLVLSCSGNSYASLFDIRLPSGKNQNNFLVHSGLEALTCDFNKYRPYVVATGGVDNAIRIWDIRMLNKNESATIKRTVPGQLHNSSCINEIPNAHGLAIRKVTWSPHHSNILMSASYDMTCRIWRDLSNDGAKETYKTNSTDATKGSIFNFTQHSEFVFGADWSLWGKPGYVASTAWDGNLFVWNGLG

yeast PEX7 [3] = target: T2, yeast PEX7 (yeast (S. cerevisiae), UniProt P39108 1-375); test: pull-down; quantitative: glutathione agarose with 1 µM yeast PEX7 and varying concentrations of GST-tagged PEX39 variants, Assay Buffer, 25 °C, 1 h; beads sedimented, PEX7 left in the supernatant quantified by SDS–PAGE and Coomassie; observed binding constants (Kobs); conditions: both partners purified
T2 construct: PEX7, yeast (S. cerevisiae); also called purified recombinant yeast PEX7; not shown: GST, N-terminal, cleaved
T2 sequence (looked up): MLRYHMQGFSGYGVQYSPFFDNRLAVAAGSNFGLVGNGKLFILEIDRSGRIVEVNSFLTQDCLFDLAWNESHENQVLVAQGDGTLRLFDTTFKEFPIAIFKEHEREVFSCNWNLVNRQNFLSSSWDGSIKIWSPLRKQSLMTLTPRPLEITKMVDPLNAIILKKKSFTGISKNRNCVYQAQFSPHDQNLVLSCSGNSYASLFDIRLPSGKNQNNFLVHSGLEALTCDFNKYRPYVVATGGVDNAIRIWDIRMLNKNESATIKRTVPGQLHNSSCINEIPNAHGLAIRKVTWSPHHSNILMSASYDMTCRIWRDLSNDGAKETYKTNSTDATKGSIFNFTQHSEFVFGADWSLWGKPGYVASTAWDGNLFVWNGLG

yeast PEX7 [4] = target: T2, yeast PEX7; test: pull-down; competition: glutathione beads with yeast PEX7 and GST-tagged PEX39 ∆APH (each 1 µM), 30 min at 25 °C, then varying concentrations of peptide for 1 h; beads sedimented, supernatant on SDS–PAGE with Coomassie; competitive-binding isotherm, observed binding constants (Kobs); conditions: both partners purified
[5] = target: T1, yeast PEX7 fused at the C terminus to …; test: bead-binding assay (fluorescence on beads by spinning-disk confocal microscopy); peptide or YG-domain polypeptide conjugated through a cysteine to thiol-reactive beads; PEX7–GFP or GFP alone in Assay Buffer (25 mM HEPES-NaOH pH 7.8, 150 mM NaCl, 1 mM TCEP), RT, 1 h (Fig. 3b); beads imaged directly in the binding reaction; conditions: both partners purified
[6] = tested on: S. cerevisiae cells expressing RFP–FOX2 and POT1–GFP; test: Peroxisomal protein import assay in S. cerevisiae; assay type: cell-based; conditions: yeast expressing PTS1 and PTS2 matrix proteins
Experimental: Peroxisome biogenesis was induced in S. cerevisiae using an established procedure. Briefly, cells were subcultured twice in YPD medium to mid-log phase (optical density at 600 nm (OD600) ≈ 2), harvested through centrifugation at 2,000g and 30 °C for 10 min, sterilely resuspended to an OD600 of 0.5 in YPGO medium (1% wt/vol yeast extract, 2% wt/vol peptone, 2% vol/vol glycerol, 0.1% wt/vol oleic acid and 0.25% vol/vol Tween 40) and cultured for an additional 16 h at 30 °C. For experiments involving PEX7 riboswitch constructs, cultures in YPGO were supplemented with 250 µM tetracycline (Millipore Sigma, T7660) as described previously.
S. cerevisiae cells expressing RFP–FOX2 and POT1–GFP (MSB-462) were induced to form peroxisomes as described earlier. […]
The cells were imaged on a spinning-disk confocal platform consisting of a Nikon Eclipse Ti inverted microscope, a Yokagawa CSU-X1 spinning-disk confocal scanner, a Hamamatsu ORCA-Fusion BT sCMOS camera and a Prior Proscan II motorized stage. […] Fluorescence was collected using a red-emission ET605/52 m (605 ± 26 nm) or a green-emission ET525/50 m (525 ± 25 nm) single-band bandpass filter (Chroma), respectively, through either a Nikon ×100 1.45 numerical aperture (NA) Plan Apo Lambda or Nikon ×40 0.95 NA Plan Apo Lambda air objective. […]

[7] = tested on: PEX7–FLAG in peroxisome-containing membrane fraction; test: Cell fractionation and FLAG immunoprecipitation / immunoblot of PEX7–FLAG and PEX39–FLAG; assay type: cell-based, S. cerevisiae; conditions: PEX13 lacking the KPWE motif; yeast in oleic acid
Experimental: Samples in Laemmli buffer (50 mM Tris–HCl pH 6.8 at RT, 10% vol/vol glycerol, 2% wt/vol SDS, 0.01% bromophenol blue and 700 mM β-mercaptoethanol) were heated for 5 min at 95 °C and then electrophoretically resolved under denaturing conditions on 4–20% TGX precast polyacrylamide gels (Bio-Rad, catalogue number 5671095). For immunoblotting, samples were transferred from the gels to Immun-Blot PVDF membranes (Bio-Rad, catalogue number 13709A06) for 12 h at 25 V and RT in 25 mM Tris, 192 mM glycine and 10% vol/vol methanol. The membranes were blotted in 20 mM Tris–HCl pH 7.5 at RT, 150 mM NaCl, 0.01% vol/vol Tween 20 and 3% wt/vol fat-free milk solids (Apex, catalogue number 20241) using antibodies to the FLAG epitope (Sigma, F7425) and compatible horseradish peroxidase-conjugated secondary antibodies (Cytiva, NA934). The blots were developed by chemiluminescence (Perkin Elmer, NEL103001EA) and scanned on an Amersham ImageQuant 800 imaging system. For staining with Coomassie blue, gels were fixed in 50% vol/vol methanol and 10% vol/vol acetic acid for 30 min at RT, incubated for 30 min in 50% vol/vol methanol, 10% vol/vol acetic acid and 0.001% wt/vol Coomassie brilliant blue R-250 (Bio-Rad), and destained overnight in 10% vol/vol acetic acid before washing into water. The stained gels were digitized on an Epson Perfection V700 scanner using the Epson Scan 2 software. […]

With SQRLQSIKDHLVESRS [PTS2 peptide] the “Recruitment of PEX7–GFP to PEX5-21-coated beads” value (yeast PEX7 [1]) was “could recruit PEX7–GFP only in the presence of the PTS2 peptide”.

B1: GST-tagged wild-type yeast PEX39 (GST–PEX39) (natural protein, UniProt P47087 1-132, looked up)
chain: MAAGGELSYEELLDHILNNKPIPNIVEVPNVTLDEGLASTPSLRPRPRPWEGQLQHQSHQGSLDKPNISLDIDQESLEGMTSLTRLSECYDIQSKLQINDSDNDNDDNNNDNNKGDGNDDDNNTVTANPTAR
notes: PEX39, yeast; also called WT; PEX39-coated beads; source: E. coli BL21 Rosetta 2(DE3), purified, GST-tagged; not shown: GST, N-terminal, kept
B1: binds [2]; binds (yeast PEX7 [3]).

B2: KPWE peptide (residues 2–20 of S. cerevisiae PEX13 with an additional N-terminal cysteine) (peptide)
peptide: CSSTAVPRPKPWETSASLEE
notes: additional N-terminal cysteine for coupling to thiol-reactive agarose beads; PEX13, S. cerevisiae, residues 2–20; also called peptide comprising the KPWE motif of yeast PEX13; source: synthetic peptide (Genscript)
B2: binds (yeast PEX7 [4]); binds [5].

B3: PEX7–FLAG: PEX7 with a short SG linker and a FLAG epitope tag at the C terminus (protein, UniProt O00628 1-323, looked up)
Peroxisomal targeting signal …: MSAVCGGAARMLRTPGRHGYAAEFSPYLPGRLACATAQHYGIAGCGTLLILDPDEAGLRLFRSFDWNDGLFDVTWSENNEHVLITCSGDGSLQLWDTAKAAGPLQVYKEHAQEVYSVDWSQTRGEQLVVSGSWDQTVKLWDPTVGKSLCTFRGHESIIYSTIWSPHIPGCFASASGDQTLRIWDVKAAGVRIVIPAHQAEILSCDWCKYNENLLVTGAVDCSLRGWDLRNVRQPVFELLGHTYAIRRVKFSPFHASVLASCSYDFTVRFWNFSKPDSLLETVEHHTEFTCGLDFSLQSPTQVADCSWDETIKIYDPACLTIPA
modifications: C-terminal SG linker and FLAG tag
In the case of B3, the “PEX7–FLAG function in protein import” value [6] is reported as “fully functional” and the “Enrichment in the membrane fraction” value [7] is reported as “considerably enriched in the membrane fraction in the absence of the KPWE motif”.
